Here are results for 6 molecules from patent publication US11571459B2, “Methods for treating cancer using PS-targeting antibodies with immuno-oncology agents” (ONCXERNA THERAPEUTICS, INC., priority 2017, dated 2023).

Series [1] relates to previously untreated locally advanced or metastatic non-squamous NSCLC. As to the kind of experiment: Phase II (PPHM 1001) paclitaxel/carboplatin with or without bavituximab. The class given is in vivo, human. The conditions noted are these: functional β2GPI ≥200 μg/mL; bavituximab given with paclitaxel/carboplatin.
For series [2], the system named is PS. As to the kind of experiment: ELISA binding to PS-coated plates. Conditions: phospholipid-coated ELISA plates. The method, then: The 3G4 antibody was produced by immunizing mice with autologous, PS-positive endothelial cells, as reported in Ran et al., 2005. The 3G4 antibody was tested for binding to PS in a standard ELISA in the presence and absence of serum, and was initially characterized as being “serum-independent”, i.e., an antibody that binds to PS in the absence of serum.
In a follow-on study, the binding of the 2aG4 antibody to PS was tested in an ELISA in the presence of varying concentrations of human β2GPI.
These included binding to PS in ELISAs, FACS analyses using PS-positive cells and functional assays in the form of an NFAT surrogate ADCC bioassay (Larson et al., 2013).
In general terms: In an ELISA, binding on a coated surface is turned into a signal by an enzyme label.

The nature of series [3]: ELISA binding to neutral phospholipids. The conditions noted are these: standard ELISA.
Series [4] has as its target T1, β2GPI (Homo sapiens, UniProt P02749).
T1 sequence (P02749 20-345): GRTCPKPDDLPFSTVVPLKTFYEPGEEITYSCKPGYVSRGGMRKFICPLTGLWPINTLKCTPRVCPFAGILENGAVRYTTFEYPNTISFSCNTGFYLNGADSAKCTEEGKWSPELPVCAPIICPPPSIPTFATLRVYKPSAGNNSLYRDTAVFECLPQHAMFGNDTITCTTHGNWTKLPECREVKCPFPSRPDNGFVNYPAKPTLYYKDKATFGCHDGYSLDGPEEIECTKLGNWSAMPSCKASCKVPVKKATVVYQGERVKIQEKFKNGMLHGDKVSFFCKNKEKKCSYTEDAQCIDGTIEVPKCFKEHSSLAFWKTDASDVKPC
As to the kind of experiment: Antibody binding to β2GPI (domain mapping). The text has this: In summary, it was shown that the 3G4 antibody binds to β2GPI at domain II and that the lipid binding region of β2GPI domain V is required for co-binding of 3G4 (and ch3G4) and β2GPI to PS exposed on cells. […] Accordingly, antibody and β2GPI co-bind to PS exposed on the outer surfaces of membranes, such as occurs on activated endothelial cells, tumor vascular endothelial cells and tumor cells, as well as on virally infected cells.

In series [5] the test system is ABAE cells with exposed PS. Kind of series: Binding of antibody-β2GPI complexes to PS on cells. Type of series: cell-based. The conditions noted are these: first study. The method, then: In analyzing the β2GPI levels required for binding of 3G4-β2GPI complexes to PS on cells, the maximum relative binding in a first study occurred at an antibody concentration of 80 nM, which is a β2GPI to antibody ratio of only 0.5.

Series [6] relates to PS. Conditions: in the presence of serum; cited from earlier work.
For series [7] the following is noted: irrespective of the presence of serum; cited from earlier work.
Series [8] deals with tumors. Conditions: syngeneic and xenogeneic tumor models; cited from earlier work.
Series [9] addresses T2, functional β2GPI (Homo sapiens, UniProt P02749).
T2 construct: Samples of β2GPI purified from human plasma and recombinant human β2GPI were both treated with plasmin; from tissue; host or cells: human plasma / serum
T2 sequence (P02749 20-345): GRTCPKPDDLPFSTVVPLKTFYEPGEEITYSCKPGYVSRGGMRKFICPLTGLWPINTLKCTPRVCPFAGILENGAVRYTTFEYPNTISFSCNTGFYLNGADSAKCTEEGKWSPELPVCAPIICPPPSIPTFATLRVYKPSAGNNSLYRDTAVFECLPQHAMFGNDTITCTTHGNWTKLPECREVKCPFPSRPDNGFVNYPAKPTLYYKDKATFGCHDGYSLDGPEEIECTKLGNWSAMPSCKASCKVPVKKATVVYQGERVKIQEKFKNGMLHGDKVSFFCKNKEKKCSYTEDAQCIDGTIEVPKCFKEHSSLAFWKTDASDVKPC
Kind of series: Functional β2GPI assay (PS-coated plate, bavituximab-HRP). Type of series: binding. The conditions noted are these: for concentration read out in functional β2GPI assay: recombinant or plasma-derived β2GPI; for Conc. (ng/mL) read out in Functional β2GPI Assay: PS-coated plate, bavituximab-HRP, nicked vs intact β2GPI samples. The source says:
The following particular materials and equipment were used in the assay to generate the Results presented in this example under Sections B1 and B2. Materials: 96-well medium binding flat bottom plates (Greiner BioOne, cat #655001); 96-well non-binding round bottom plates (Costar, cat #3605); hexane (Sigma, cat #32293); PS antigen (Sigma, cat #P6641); ovalbumin (Sigma, cat #A5503); chromogenic substrate, tetramethylbenzidine (TMB), (KPL, cat #50-76-00); 2M H2SO4 (Fisher, Cat #SA818-4); plate covers (Fisher 015-027-11); adhesive plate sealer (VWR 232701); reagent reservoirs (VistaLab Cat #3054-1000). 1.5 mL microcentrifuge tubes, 50 mL conical tubes and 15 mL conical tubes were also utilized.
The Wash Buffer is IX phosphate-buffered saline (PBS) and the Blocking Buffer is 2% Ovalbumin in IX PBS.
The bavituximab antibody was conjugated to horseradish peroxidase (HRP) to prepare a bavituximab-HRP detection agent for use in the assay. The conjugation was performed using EZ-Link® Plus Activated Peroxidase (Thermo Scientific, Cat #31487) following the procedure for conjugating activated peroxidase to an antibody at pH 7.2 provided by the manufacturer. […] This was added to 1 mg of lyophilized EZ-Link Plus activated peroxidase to reconstitute. Immediately following reconstitution, 10 μL of 5M sodium cyanoborohydride solution was added to the reaction and incubated for 1 hour at room temperature. Once incubation was completed, 20 μL of quenching buffer was added and incubated for 15 minutes at room temperature. Conjugated bavituximab-HRP (1 mg/mL) was stored at 4° C. for up to 4 weeks.
The ELISA plates were coated with the PS antigen as follows: 5 μg/mL PS antigen was prepared and diluted into 6 mL of hexane in a fume hood with the blower off. 50 μL of PS solution was added to each well using a 12-channel pipette. The fume hood blower was turned back on and the hexane allowed to evaporate for 30-45 minutes, typically 30 minutes.
The PS-coated ELISA plates were blocked as follows: 100 mL per plate of the Blocking Buffer (2% Ovalbumin in IX PBS) was prepared. 200 μL of Blocking Buffer was added to each well using a 12-channel pipette.
The β2GPI standards for the positive control were obtained from Haematologic Technologies, Inc. (HTI; cat #B2G1-0001-C; 1.0 mg/ml) in a buffer of 0.2 M Glycine, 0.15 M NaCl, pH 7.4. […]

“paclitaxel/carboplatin [reference compound]” gave a mOS in series [1] of 13.2 months.

B1: 3G4: mouse IgG3 monoclonal PS-targeting antibody, hybridoma ATCC PTA 4545 (antibody, V domains shown)
VH: EVQLQQSGPELEKPGASVKLSCKASGYSFTGYNMNWVKQSHGKSLEWIGHIDPYYGDTSYNQKFRGKATLTVDKSSSTAYMQLKSLTSEDSAVYYCVKGGYYGHWYFDVWGAGTTVTVSSATTTAPSVYPLVP
VL: DIQMTQSPSSLSASLGERVSLTCRASQDIGSSLNWLQQGPDGTIKRLIYATSSLDSGVPKRFSGSRSGSDYSLTISSLESEDFVDYYCLQYVSSPPTFGAGTKLELKRADAAPTVFIFGRIP
Take B1: in [2], the “binding to phospholipids in standard ELISA” value is “bound to PS, CL, PI (phosphatidylinositol), PA (phosphatidic acid) and PG (phosphatidylglycerol)”. In [3], the “reaction with neutral phospholipids, PC and SM” value is “did not react”. For the same molecule, the β2GPI domain bound result in series [4] is given as “bind to β2GPI at domain II”. Moreover, in series [5], the “antibody concentration at maximum relative binding to PS on cells” value was determined as 80 nM; the “molar ratio of β2GPI to antibody for optimal antibody binding” value is “between 0.125, 0.5 and 2”. For the same molecule, in [5] (antibody 80 nM), the “β2GPI to antibody ratio at maximum relative binding” value is on record as 0.5. Moreover, the “binding to anionic phospholipids (PS, PI, PA, PG, CL)” value in [6] is “bind strongly to anionic phospholipids”. Also, in series [7], the “binding to neutral phospholipids PC, SM or PE” value is on record as “no detectable binding”. In addition, in series [8], the anti-tumor effects result is “caused tumor vascular injury, localized thrombosis, tumor necrosis and retarded tumor growth”; the toxicity entry is given as “no evidence of toxicity”.

B2: β2GPI: plasmin-free (intact) β2GPI purified from human plasma or recombinant (protein)
chain: GRTCPKPDDLPFSTVVPLKTFYEPGEEITYSCKPGYVSRGGMRKFICPLTGLWPINTLKCTPRVCPFAGILENGAVRYTTFEYPNTISFSCNTGFYLNGADSAKCTEEGKWSPELPVCAPIICPPPSIPTFATLRVYKPSAGNNSLYRDTAVFECLPQHAMFGNDTITCTTHGNWTKLPECREVKCPFPSRPDNGFVNYPAKPTLYYKDKATFGCHDGYSLDGPEEIECTKLGNWSAMPSCKASCKVPVKKATVVYQGERVKIQEKFKNGMLHGDKVSFFCKNKEKKCSYTEDAQCIDGTIEVPKCFKEHSSLAFWKTDASDVKPC
In the case of B2, the “concentration read out in functional β2GPI assay” value in [9] was around 136 ng/mL.

B3: plasmin-treated β2GPI: β2GPI treated with plasmin, majority nicked, does not bind PS (protein)
chain: GRTCPKPDDLPFSTVVPLKTFYEPGEEITYSCKPGYVSRGGMRKFICPLTGLWPINTLKCTPRVCPFAGILENGAVRYTTFEYPNTISFSCNTGFYLNGADSAKCTEEGKWSPELPVCAPIICPPPSIPTFATLRVYKPSAGNNSLYRDTAVFECLPQHAMFGNDTITCTTHGNWTKLPECREVKCPFPSRPDNGFVNYPAKPTLYYKDKATFGCHDGYSLDGPEEIECTKLGNWSAMPSCKASCKVPVKKATVVYQGERVKIQEKFKNGMLHGDKVSFFCKNKEKKCSYTEDAQCIDGTIEVPKCFKEHSSLAFWKTDASDVKPC
Turning to B3, the “concentration read out in functional β2GPI assay” value in [9] is on record as 33 ng/mL.

B4: Recombinant Plasmin-free β2GPI (protein, UniProt P02749 20-345, looked up)
Beta-2-glycoprotein 1: GRTCPKPDDLPFSTVVPLKTFYEPGEEITYSCKPGYVSRGGMRKFICPLTGLWPINTLKCTPRVCPFAGILENGAVRYTTFEYPNTISFSCNTGFYLNGADSAKCTEEGKWSPELPVCAPIICPPPSIPTFATLRVYKPSAGNNSLYRDTAVFECLPQHAMFGNDTITCTTHGNWTKLPECREVKCPFPSRPDNGFVNYPAKPTLYYKDKATFGCHDGYSLDGPEEIECTKLGNWSAMPSCKASCKVPVKKATVVYQGERVKIQEKFKNGMLHGDKVSFFCKNKEKKCSYTEDAQCIDGTIEVPKCFKEHSSLAFWKTDASDVKPC
modifications: recombinant, plasmin-free
For the molecule B4, the “Conc. (ng/mL) read out in Functional β2GPI Assay” value in [9] was 136.42 ng/mL.

B5: Human Plasmin-free β2GPI (protein, UniProt P02749 20-345, looked up)
Beta-2-glycoprotein 1: GRTCPKPDDLPFSTVVPLKTFYEPGEEITYSCKPGYVSRGGMRKFICPLTGLWPINTLKCTPRVCPFAGILENGAVRYTTFEYPNTISFSCNTGFYLNGADSAKCTEEGKWSPELPVCAPIICPPPSIPTFATLRVYKPSAGNNSLYRDTAVFECLPQHAMFGNDTITCTTHGNWTKLPECREVKCPFPSRPDNGFVNYPAKPTLYYKDKATFGCHDGYSLDGPEEIECTKLGNWSAMPSCKASCKVPVKKATVVYQGERVKIQEKFKNGMLHGDKVSFFCKNKEKKCSYTEDAQCIDGTIEVPKCFKEHSSLAFWKTDASDVKPC
modifications: plasmin-free
As for B5, in series [9], the “Conc. (ng/mL) read out in Functional β2GPI Assay” value is 136.42 ng/mL.
